Measurements published in IntAct's records for PubMed 24469404.

B1: TERF1-interacting nuclear factor 2 (Mus musculus), Q9QXG9 (parent)
chain: MAPPPGVGPASLRFAAAASWLVVRRRRVEHFPKVVEFLQSLRAAAPGLVCYRHHERLCMSLKAKVVVELILQARPWDQVLNALKHHFPAESRTTKEDRKLLEARENFCLLVKHLSEDPPSSLQELEQDYGESFLVAMEKLLFEYLCQLEKALPPVRAQELQDALSWSQPGSFITSSVALHQYGMDMGWTFPESSTSGSGNLIEPMEESPHQQTRPAFHSPLPKAKLGPHQPASLEHPEHLAGHRFNLAPLGKRKSRSHWTSAKACHKERPTVMLLPFRNMGLPAQDLSNPKSREEPGAASAASVGTEPVCTEEAKTPSRPLGKRALEETPPDSPAASRRTV
partner: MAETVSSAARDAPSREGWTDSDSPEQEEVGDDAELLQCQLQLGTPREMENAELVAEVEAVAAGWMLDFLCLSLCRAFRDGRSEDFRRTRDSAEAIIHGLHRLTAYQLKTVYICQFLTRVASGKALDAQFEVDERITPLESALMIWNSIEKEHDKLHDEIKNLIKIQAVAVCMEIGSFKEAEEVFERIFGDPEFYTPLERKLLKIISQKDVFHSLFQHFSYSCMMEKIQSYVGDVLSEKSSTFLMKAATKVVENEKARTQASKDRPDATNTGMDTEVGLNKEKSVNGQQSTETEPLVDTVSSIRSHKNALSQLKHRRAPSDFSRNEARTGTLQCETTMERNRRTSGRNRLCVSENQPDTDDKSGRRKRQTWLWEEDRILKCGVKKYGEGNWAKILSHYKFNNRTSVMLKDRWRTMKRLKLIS

Variants of: B1
Details: with terf1_mouse Terf1, P70371

With L247E as the variant, how does the “effect of a mutation on the interaction” value read?
Its value is “disrupting interaction”.
